Reference: PMC8776730 (Nature Communications, 2022)

Legend:
[1] = mouse, in vivo, iv, 16 mg/kg
MIA PaCa-2 cells = experiment: Cellular imaging (CLSM) of FITC-labelled molecules; assay type: cell-based; conditions: FITC-labelled molecules, MIA PaCa-2 cells, 1 h incubation, CLSM
Procedure: To further confirm this hypothesis, the M1 and M2 were equally labeled by FITC for cell imaging (Fig. 5b). To simulate the dynamic physiological condition, the cell culture medium was replaced every 15 min. After 1 h of incubation with M1 and M2 at the same molecule molar concentration, there occurred significant differences between the two molecules (Fig. 5c). […] The huge difference can be explained by the fact that the secondary assembly rate broke the balance between the targeted ligand and receptor, and thus tended to a stable assembly interaction. The retention efficiency depended on the assembly rate constant Ka. Meanwhile, the rapid dynamic assembly of BIVA probe in situ around the cell membrane, and contributed to the efficient formation and retention of nanofibers on the cell profile. When the incubation time was delayed up to 2 h, some components could be endocytosed into the cells, but most of them were found on the membranes (Supplementary Fig. 18). […] Then, the isolated cells were collected and lysed, the extracted cell membrane fragments were stained with ThT. […] In order to verify the influence of the addition of the targeting module of the probe molecules, we explored the imaging of R-M1 and M4 on cells.
Fig. 5 The BIVA effect with enhanced targeting to pancreatic tumor cell for boundaries imaging. a Illustration of BIVA effect: active targeting and assembly/aggregate induced retention (AIR) effect. b Chemical structure of FITC labeling. c 2D and 3D confocal images of M2 with active targeting property and M1 with BIVA effect on MIA PaCa-2 cells after incubation for 1 h. d The distribution of M1 on MIA PaCa-2 cell. e ThT staining of the lysed cell membrane of MIA PaCa-2. f, Illustration of migration inhibition after treated by BIVA probe. g The image of the migrated cells after treatment of PBS (blank), M2, M4, and M1. Scale bar: 100 μm. h The pie diagram of quantitative statistical calculation of the migrated cells (blue) in different groups. The blank control was set as 100% migrated cells.
MIA PaCa-2 cells were digested with trypsin, counted with cell counting plate, diluted to 1 × 10^4 with DMEM medium, and 1 mL to 1 cm diameter confocal microscope dish was taken. The cells were incubated in […] atmosphere for 24 h. The medium containing M1 and M2 (50 μM) was replaced and incubated with the cells for 2 h. The cells were washed with PBS for 3 times. CLSM (Zeiss 710) was used to image cells under 40 × objective, excitation = 488 nm, and emission >520 nm.
Supplementary Fig. 19 ∣ CLSM images of Miapaca-2 cells treated with different molecules or M1 under different conditions. […]

What does the source list for mPEG-GPAKLVFFGC(IR783)GRGD [M1]?
blood circulation half-life (t1/2) [1]: 1.83 ± 0.05 h; fluorescence signal on the cell membrane (MIA PaCa-2 cells): higher fluorescence retention rate on the cell membrane
